Reference: patent US20250170247A1, “CONJUGATES, AND USES THEREOF” (CITY UNIVERSITY OF HONG KONG, priority 2023, published 2025)
{5Hexynyl} = hexynyl group used for click conjugation

Assays:
[1] = target: T1, RHAU53 (Homo sapiens, UniProt Q9H2U1); conditions: It is known; cited from earlier work
T1 construct: RHAU-specific motif containing 53 amino acids (RHAU53)
T1 sequence (Q9H2U1 53-105 limits assumed): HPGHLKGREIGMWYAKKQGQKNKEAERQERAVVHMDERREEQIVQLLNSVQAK

[2] = target: T2, DHX36 (RHAU), full-length (UniProt Q9H2U1 Q9H2U1:1-1008); test: EMSA; strong binding, data not shown; conditions: G4
T2 sequence: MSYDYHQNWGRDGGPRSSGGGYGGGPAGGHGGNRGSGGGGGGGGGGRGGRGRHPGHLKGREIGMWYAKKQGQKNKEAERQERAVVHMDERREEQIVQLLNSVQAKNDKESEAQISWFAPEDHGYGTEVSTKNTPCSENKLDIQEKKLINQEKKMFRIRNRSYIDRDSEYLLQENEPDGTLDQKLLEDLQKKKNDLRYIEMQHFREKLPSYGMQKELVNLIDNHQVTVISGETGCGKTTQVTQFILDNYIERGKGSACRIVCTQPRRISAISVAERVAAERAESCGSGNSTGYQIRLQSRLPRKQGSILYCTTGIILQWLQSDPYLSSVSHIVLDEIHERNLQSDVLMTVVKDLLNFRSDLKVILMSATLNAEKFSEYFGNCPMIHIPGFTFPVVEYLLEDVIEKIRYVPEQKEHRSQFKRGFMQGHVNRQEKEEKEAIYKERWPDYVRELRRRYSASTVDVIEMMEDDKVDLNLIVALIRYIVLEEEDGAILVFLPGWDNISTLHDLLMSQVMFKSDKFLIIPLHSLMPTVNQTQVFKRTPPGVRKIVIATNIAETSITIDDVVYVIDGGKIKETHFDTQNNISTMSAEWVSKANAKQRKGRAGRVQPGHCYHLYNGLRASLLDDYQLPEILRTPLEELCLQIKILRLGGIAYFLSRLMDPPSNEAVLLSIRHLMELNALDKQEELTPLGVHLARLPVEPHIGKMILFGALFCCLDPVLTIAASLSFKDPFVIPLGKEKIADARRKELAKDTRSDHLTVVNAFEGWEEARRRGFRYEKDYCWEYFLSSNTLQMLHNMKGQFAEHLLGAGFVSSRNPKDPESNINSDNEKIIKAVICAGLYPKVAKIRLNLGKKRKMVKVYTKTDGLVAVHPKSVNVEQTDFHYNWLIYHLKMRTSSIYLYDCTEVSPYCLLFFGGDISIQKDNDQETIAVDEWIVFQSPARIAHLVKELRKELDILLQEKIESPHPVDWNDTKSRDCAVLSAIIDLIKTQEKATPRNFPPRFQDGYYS

[3] = target: T2, DHX36 (RHAU), full-length; test: MST; 25 mM Tris-HCl pH 7.5, 150 mM KCl, 1 mM MgCl2, 37 C; conditions: label: 3'-FAM; G4
Description: Before the reaction, FAM labeled G4-compound conjugate was heated at 75° C. for 5 minutes and cooled down on the ice for 10 minutes. DHX36 protein was serially diluted to 16 samples from the highest concentration of […]. FAM-labeled oligonucleotides (40 nM) were added to each sample and incubated in Tris-HCl buffer (25 mM Tris-HCl, pH 7.5, 150 mM KCl, and 1 mM MgCl₂) at 37° C. for 30 minutes. Binding affinity was carried out on capillary tubes using an MST machine. The curve fitting and Kd determination were obtained from software.
Full-length DHX36 protein was then used to further confirm the recognition of the present rG4-PROTAC to G4BP via MST binding assay. […] As described above, the affinity of A_dG4_FAM to RHAU53 was nearly 4.7 times higher (Kd=[…]) than that of FAM_rG4_A (FIG. 2B). The interaction between A_dG4_FAM and DHX36 protein quantified by MST (Kd=303±55; FIG. 2D) confirmed the result, indicating a relatively weaker interaction with DHX36.

[4] = target: T3, RHAU53 peptide (53-aa RHAU/DHX36 G4-binding fragment) (UniProt Q9H2U1 Q9H2U1:53-105); test: EMSA; 25 mM Tris-HCl pH 7.5, 150 mM KCl, 1 mM MgCl2, 37 C; conditions: label: 3'-FAM
T3 chain: T1 sequence (Q9H2U1 53-105 limits assumed)
Description: All oligonucleotides were heated for 5 minutes at 75° C. and cooled down for 10 minutes on ice. Different concentrations of RHAU53 peptide (0-2 μM) and 5-carboxyfluorescein (FAM)-labeled oligonucleotides or G4-compound conjugate (30 nM) were mixed in the Tris-HCl buffer (25 mM Tris-HCl, pH 7.5, 150 mM KCl and 1 mM MgCl₂). The mixture was incubated at 37° C. for 30 minutes, and 5% glycerol was then added to each sample. Bound and unbound RNAs were separated on 10% native polyacrylamide gel in 0.5× Tris/Borate/EDTA (TBE) at 4° C., 150 V for 30 minutes. The gel was scanned by scanner at 500 V and quantified by software.
To evaluate the target recognition ability of the rG4-PROTACs, the binding assay of FAM_rG4_A to RHAU53 peptide was performed by EMSA. RHAU53 peptide, the truncated DHX36 fragment, is the most important core protein domain required for rG4-RHAU interaction.

In the case of “hTERC rG4: human telomerase RNA component rG4, 5′-GGGUUGCGGAGGGUGGGCCU-3′ (SEQ ID NO: 1), the warhead targeting G4BP (RNA, 5' {5Hexynyl}, backbone not given here; further chemistry not fully specified)”, the “affinity for RHAU53” value [1] is listed as “nanomolar affinity”.

B1: APP 3'UTR rG4 (ssRNA)
RNA: CGGGGCGGGUGGGGAGGGGU
B1: binds [2].

B2: FAM_rG4_A (hTERC rG4 WT-AHPC conjugate) (ssRNA)
RNA: GGGUUGCGGAGGGUGGGCCU
modifications: 5'-hexynyl clicked to azide-modified AHPC
B2 showed a Kd [3] of 79.7 nM and a Kd [4] of 67.4 nM.
